Experimental data from patent US20030165991A1.

How the values were obtained:
[1] = biological target: antiserum from C430-BSA-immunized mice; assay: CI-ELISA, immobilized phage-displayed DONPEP.2, antiserum after the fourth injection, free C430 as competitor
[2] = biological target: Monoclonal antibody mAB 6F5 (anti-deoxynivalenol monoclonal antibody from hybridoma cell line 6F5); assay: CD-ELISA, immobilized mAB 6F5; C430 competing with DON-HRP or C430-HRP conjugate

H-SWGPFPFGGGSC-OH [synthetic peptide C430 (NH2-…-COOH)]
IC50 [1]: 390 nM | IC50 [2]: 640 to 800 nM
